What all share (test): ELISA on plate-coated toxin domain
Assay [1] concerns the target BoNT/A light-chain heavy-chain N-terminus (LCHN) domain (UniProt P0DPI0 1-870).
Assay [2] deals with BoNT/A heavy-chain N-terminus (HCN) domain (UniProt P0DPI0 871-1092).
The target of assay [3] is BoNT/A heavy-chain C-terminus (HCC) domain (UniProt P0DPI0 1093-1296).

The source of these data is US20110059079A1 (XOMA TECHNOLOGY, published 2011).

Sequence of BoNT/A heavy-chain C-terminus (HCC) domain (P0DPI0 1093-1296 limits assumed): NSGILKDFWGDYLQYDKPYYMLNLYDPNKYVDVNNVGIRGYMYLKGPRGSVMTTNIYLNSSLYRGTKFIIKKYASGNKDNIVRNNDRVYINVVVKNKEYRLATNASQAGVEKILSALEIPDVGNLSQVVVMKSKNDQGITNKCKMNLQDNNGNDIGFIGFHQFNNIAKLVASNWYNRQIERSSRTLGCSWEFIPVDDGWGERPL
Sequence of BoNT/A heavy-chain N-terminus (HCN) domain (P0DPI0 871-1092 limits assumed): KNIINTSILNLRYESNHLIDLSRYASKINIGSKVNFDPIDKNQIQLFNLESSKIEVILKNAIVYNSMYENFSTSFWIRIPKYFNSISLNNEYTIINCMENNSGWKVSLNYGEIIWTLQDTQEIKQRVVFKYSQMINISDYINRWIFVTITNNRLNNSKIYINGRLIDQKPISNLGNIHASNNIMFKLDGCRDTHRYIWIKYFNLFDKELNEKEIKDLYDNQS
Sequence of BoNT/A light-chain heavy-chain N-terminus (LCHN) domain (P0DPI0 1-870 limits assumed): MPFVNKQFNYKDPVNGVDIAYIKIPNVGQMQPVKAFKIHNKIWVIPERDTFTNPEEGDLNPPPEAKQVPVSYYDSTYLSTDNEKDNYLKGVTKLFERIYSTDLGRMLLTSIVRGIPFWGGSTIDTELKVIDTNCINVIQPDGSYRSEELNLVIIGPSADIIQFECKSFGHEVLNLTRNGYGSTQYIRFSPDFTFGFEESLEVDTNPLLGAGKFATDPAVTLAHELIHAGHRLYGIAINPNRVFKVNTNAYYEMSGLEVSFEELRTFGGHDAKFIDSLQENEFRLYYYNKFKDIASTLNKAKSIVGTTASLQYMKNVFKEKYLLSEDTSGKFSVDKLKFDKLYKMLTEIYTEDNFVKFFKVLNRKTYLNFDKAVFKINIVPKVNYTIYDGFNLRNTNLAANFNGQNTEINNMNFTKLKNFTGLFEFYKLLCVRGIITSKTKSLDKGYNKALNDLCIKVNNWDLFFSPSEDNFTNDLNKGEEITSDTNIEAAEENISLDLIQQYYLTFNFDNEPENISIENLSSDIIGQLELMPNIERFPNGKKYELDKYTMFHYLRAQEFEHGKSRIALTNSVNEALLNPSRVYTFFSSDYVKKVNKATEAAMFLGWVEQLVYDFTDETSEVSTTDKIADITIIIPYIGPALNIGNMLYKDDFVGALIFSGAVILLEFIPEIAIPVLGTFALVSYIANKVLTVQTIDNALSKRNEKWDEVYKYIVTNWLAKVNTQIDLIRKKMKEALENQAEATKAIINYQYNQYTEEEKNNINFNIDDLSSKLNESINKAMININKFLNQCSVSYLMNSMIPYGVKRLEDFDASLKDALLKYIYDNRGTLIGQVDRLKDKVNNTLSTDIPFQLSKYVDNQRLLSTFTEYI

B1: ABT02 (antibody, V domains shown)
VH: QVQLVQSGGGVVHPGRSLKLSCAGSGFTFSDYDMHWVRQAPGKGLEWVAVMWFDGTEKYSAESVKGRFTISRDNSKNTLFLQMNSLRADDTAVYYCAREPDWLLWGDRGALDVWGQGTTVTVSS
VL: DIVMTQSPSTLSASVGDRVTITCWASQSISSRLAWYQQKPGKAPKLLMYEATSLGSGVPSRFSGSGSGTEFTLTISSLQPDDFAAYYCQHYDTYPYTFGQGTKLEIK
As to B1, the binding result in assay [1] and in assay [2] was “no binding” in each case.

B2: ABT03 (antibody, V domains shown)
VH: QVQLQQSGGGLVQPGGSLRLSCAASGFTFSNYAMTWVRQAPGKGLEWVSSISVGGSDTYYADSVKGRFTVSRDNSKNTLLLQMNSLRAEDTAVYYCAKVRTKYCSSLSCFAGFDSWGQGTRVTVSS
VL: DVVMTQSPSSLSASVGDRVTITCRASQSISSYLHWYQQKPGKAPTLLISDASSSQSGVPSRFSGSRFGTDFTLTISSLQPEDFATYYCQQSYSTRALTFGGGTKVEIK
On to B2, for which the binding result in assay [3] and in assay [2] was “no binding” each time.

B3: ABT01 (antibody, V domains shown)
VH: QVQLQQSGGGLVQPGGSLRLSCAASGFTFKYDYMYWIRQAPGKGLEWVATISDGGSYTYYSDSVEGRFTTSRDNSKNTLYLQMNSLRAEDTAIYYCSRYRYDDAMDYWGQGTLVTVSS
VL: EIVLTQSPATLSLSPGERATISCRASESVDSYGHSFMQWYQQKPGQAPRLLIYRASNLEPGIPARFSGSGSGTDFTLTISSLEPEDFAVYYCQQGNEVPFTFGQGTKVEIK
As to B3, the binding result in assay [1] and in assay [3] was “no binding” in each case.
